The target in test [1] is recombinant von Willebrand factor (VWF) A2 domain polypeptide, A2_(1481-1668) (human) (UniProt P04275). The test can be described thus: ELISA.
Another test has as its target fibrin monomer (UniProt P02675). The test can be described thus: ELISA. A general note: ELISA stands for enzyme-linked immunosorbent assay.

This passage reports EC50 results from article PMC5270629.

One may read the EC50 as the concentration that produces a half-maximal response.

recombinant von Willebrand factor (VWF) A2 domain polypeptide, A2_(1481-1668) (human), sequence (P04275 1481-1668): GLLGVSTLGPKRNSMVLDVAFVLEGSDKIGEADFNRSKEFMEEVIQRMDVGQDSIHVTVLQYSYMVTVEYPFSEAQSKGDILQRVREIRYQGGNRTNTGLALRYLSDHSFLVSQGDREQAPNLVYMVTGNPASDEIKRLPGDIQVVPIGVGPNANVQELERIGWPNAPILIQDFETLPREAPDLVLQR
recombinant von Willebrand factor (VWF) A2 domain polypeptide, A2_(1481-1668), sequence (P04275 1481-1668): as above

Turning to “fibrin monomer (from UniProt P02675 45-491; P02679 27-453) (complex)”, the EC50 in test [1] is 7 nM.

Consider “recombinant von Willebrand factor (VWF) A2 domain polypeptide, A2_(1481-1668) (from UniProt P04275 1481-1668) (domain or fragment)”, for which the EC50 in the test with fibrin monomer was 60 nM.
